Experimental data from article PMC11552376, “Specific binding between Arabidopsis thaliana phytochrome-interacting factor 3 (AtPIF3) bHLH and G-box originated prior to embryophyte emergence” (BMC Plant Biology, 2024).
Where a chain is given by its changes, count along the chain named.

Legend:
AtPIF3-bHLH H348A = target: T1, AtPIF3-bHLH H348A (Arabidopsis thaliana, UniProt O80536 340-397, H348A); assay: ITC; binding curve unsaturated; ITC: 30 mM HEPES, 125 mM NaCl, pH 7.5, 25 C, 400 uM protein into 40 uM DNA; fEMSA: 30 mM HEPES, 500 mM NaCl, pH 7.4, on ice 30 min, 3 uM probe, 10% native gel in 0.5x TBE at 4 C; conditions: protein: recombinant; tags: C-terminal His6; chain copies: 2; blunt
T1 sequence: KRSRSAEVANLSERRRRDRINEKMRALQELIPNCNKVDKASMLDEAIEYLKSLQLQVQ

AtPIF3-bHLH R356A = target: T2, AtPIF3-bHLH R356A (Arabidopsis thaliana, UniProt O80536 340-397, R356A); assay: ITC; error exceeds value; ITC: 30 mM HEPES, 125 mM NaCl, pH 7.5, 25 C, 400 uM protein into 40 uM DNA; fEMSA: 30 mM HEPES, 500 mM NaCl, pH 7.4, on ice 30 min, 3 uM probe, 10% native gel in 0.5x TBE at 4 C; conditions: protein: recombinant; tags: C-terminal His6; chain copies: 2; blunt
T2 sequence: T1 sequence with A9H, R17A

B1: G-box (PER2), ITC (dsDNA)
DNA 1: AGGAACACGTGACCC
DNA 2: GGGTCACGTGTTCCT
For B1, the Kd (AtPIF3-bHLH H348A) was 3.39 ± 0.275 µM and the Kd (AtPIF3-bHLH R356A) was 106 ± 112 µM.
